According to patent US20230235080A1, “TROPHOBLAST CELL-SURFACE ANTIGEN-2 (TROP-2) ANTIBODIES” (Bionecure Therapeutics, Inc., priority 2020, published 2023):
Numbering of substitutions follows the chain as printed.

T1: human Trop-2 on Trop-2 positive cancer cells (human, UniProt P09758 27-323)
T1 sequence (looked up): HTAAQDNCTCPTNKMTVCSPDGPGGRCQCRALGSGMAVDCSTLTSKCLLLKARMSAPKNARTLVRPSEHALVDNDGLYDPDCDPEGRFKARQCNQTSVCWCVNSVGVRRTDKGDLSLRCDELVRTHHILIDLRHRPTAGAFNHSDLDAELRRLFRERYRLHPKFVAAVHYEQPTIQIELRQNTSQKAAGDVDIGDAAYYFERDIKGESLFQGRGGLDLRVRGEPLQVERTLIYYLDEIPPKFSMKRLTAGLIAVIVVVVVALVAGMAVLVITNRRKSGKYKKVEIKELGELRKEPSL

T2: human Trop-2-ECD-6His fusion protein (human, UniProt P09758 27-274)
T2 construct: Expressed in a human 293 cell line; also called huTrop-2; human Trop-2 antigen
T2 sequence: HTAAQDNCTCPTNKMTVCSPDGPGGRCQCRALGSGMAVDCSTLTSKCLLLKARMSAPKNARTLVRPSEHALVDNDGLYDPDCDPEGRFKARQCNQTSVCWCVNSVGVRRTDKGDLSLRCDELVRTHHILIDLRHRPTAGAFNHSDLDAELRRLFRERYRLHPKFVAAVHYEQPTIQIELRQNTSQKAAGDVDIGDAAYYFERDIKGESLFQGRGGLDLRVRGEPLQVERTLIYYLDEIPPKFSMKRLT

B1: humanized IgG #118-2-5 Hu(A2)/LuX (antibody, V domains shown)
VH: QVQLQESGPGLVKPSETLSLTCTVSGFSLTSYGVNWIRQPPGKGLEWIGVMWAGGSTNYNSALMSRVTISKDTSKNQFSLKLSSVTAADTAVYYCARDENWDGAWFAYWGQGTLVTVSS
VL: DIVMTQSPDSLAVSLGERATINCKSSQSLLNSGTRKNYLAWYQQKPGQPPKLLIYWASSRESGVPDRFSGSGSGTDFTLTISSLQAEDVAVYYCKQSYNLFTFGGGTKVEIK
notes: Second round of humanization
B2: humanized IgG #118-2-5 Hu(A5)/LuX (antibody, V domains shown)
VH: B1 VH with K71V, V92M
VL: B1 VL
notes: Second round of humanization
B3: humanized IgG #118-2-5 Hu(A4)/LuX (antibody, V domains shown)
VH: B1 VH with K71V, T86Q
VL: B1 VL
notes: Second round of humanization
B4: humanized IgG #118-2-5 HuA/Lu(X6) (antibody, V domains shown)
VH: B1 VH with K71V
VL: B1 VL with V89L
notes: Second round of humanization
B5: humanized IgG #118-2-5 HuA/Lu(X4) (antibody, V domains shown)
VH: B1 VH with K71V
VL: B1 VL with Y55S
notes: Second round of humanization
B6: humanized IgG #118-2-5 HuA/Lu(X5) (antibody, V domains shown)
VH: B1 VH with K71V
VL: B1 VL with L84V
notes: Second round of humanization
B7: humanized IgG #118-2-5 HuA/Lu(X2) (antibody, V domains shown)
VH: B1 VH with K71V
VL: B1 VL with I21M
notes: Second round of humanization
B8: humanized IgG #118-2-5 HuA/Lu(X1) (antibody, V domains shown)
VH: B1 VH with K71V
VL: B1 VL with D9S
notes: Second round of humanization
B9: humanized IgG #118-2-5 Hu(A3)/LuX (antibody, V domains shown)
VH: B1 VH with K71V, F78V
VL: B1 VL
notes: Second round of humanization
B10: #125-1-5 mouse H14-4/L3-4 (antibody, V domains shown)
VH: QIQLVQSGPELVKPGASVKMSCKASGYTFTTYVIHWVKQKPGQGLEWIGYINPNNDGTKYNEKFKGKATLISDKSSTTAYMEVRGLTSEDSAVYYCARPHFETHAMDYWGQGTSVTVSS
VL: DIQMTQSPSSFSVSLGDSVTITCKASEDIFNRLAWYQQKPGNAPRLLISGATSLETGVPSRFSGGGSGKEYTLSITSLQNEDVATYYCQQYWNTWTFGGGTKLEIK

These binders were tested against T1, human Trop-2 on Trop-2 positive cancer … (assay: cell-based or functional assay).

First: B1
Second: B2
The “Internalization rate (flow cytometry, MDA-MB-468 cells)” value (“Internalization rate” for short) of the first is higher: 14.6% for the first, 11.5% for the second.

Compared with B3, B4 is lower in “Internalization rate” value: 52.8% for the first, 46.4% for the second.

Compared with B5, B6 is lower in “Internalization rate” value: 61.5% for the first, 19.7% for the second.

Compared with B7, B8 is higher in “Internalization rate” value: 43.2% for the first, 48.9% for the second.

In the case of B9, the “Internalization rate” value is reported as 55.8%.

Biological target: T1, human Trop-2 on Trop-2 positive cancer …
Experiment: cell-based or functional assay
Remark: another data set of the same source

With B10 the “Internalization rate” value was 5.5%.

What follows are binders tested against T2, human Trop-2-ECD-6His fusion protein (assay: antigen binding ELISA on immobilized human Trop-2-ECD-6His).

B1 and B2 are within 1.5-fold of each other in EC50: 0.37 nM for the first, 0.34 nM for the second.

Going from B3 to B4, the EC50 falls from 0.39 nM to 0.26 nM (1.5-fold). The second is the more potent here.

First: B5
Second: B6
The EC50 of the first is 2.6-fold lower: 0.12 nM for the first, 0.31 nM for the second.

B7 and B8 are within 1.5-fold of each other in EC50: 0.36 nM for the first, 0.26 nM for the second.

For B9, the EC50 was 0.31 nM.
